Paper PMC7367873, “Dissecting the sequence determinants for dephosphorylation by the catalytic subunits of phosphatases PP1 and PP2A” (Nature Communications, 2020)

What was measured:
[1] = tested on: GFP-14-3-3β and its binding proteins; test: GFP-14-3-3β co-IP with LC-MS/MS label-free quantification, untreated versus PP1c-treated; set-up: species or system human; conditions: pairwise comparison PP1 vs untreated
[2] = tested on: GFP-14-3-3β; test: GFP-14-3-3β co-IP with LC-MS/MS, untreated GFP-14-3-3β versus GFP control (14-3-3 interactome); type: binding, human; conditions: pairwise comparison untreated vs GFP
[3] = log2 difference, label-free quantification, 3 replicates each

B1: TSR1 (protein, UniProt Q2NL82 1-804, looked up)
Pre-rRNA-processing protein …: MAAHRPGPLKQQNKAHKGGRHRGRGSAQRDGKGRLALKTLSKKVRKELSRVDQRHRASQLRKQKKEAVLAEKRQLGGKDGPPHQVLVVPLHSRISLPEAMQLLQDRDTGTVHLNELGNTQNFMLLCPRLKHRWFFTSARPGDLHVVLDMAKVADTILFLLDPLEGWDSTGDYCLSCLFAQGLPTYTLAVQGISGLPLKKQIDTRKKLSKAVEKRFPHDKLLLLDTQQEAGMLLRQLANQKQQHLAFRDRRAYLFAHAVDFVPSEENNLVGTLKISGYVRGQTLNVNRLLHIVGYGDFQMKQIDAPGDPFPLNPRGIKPQKDPDMAMEICATDAVDDMEEGLKVLMKADPGRQESLQAEVIPDPMEGEQTWPTEEELSEAKDFLKESSKVVKKVPKGTSSYQAEWILDGGSQSGGEGDEYEYDDMEHEDFMEEESQDESSEEEEEYETMTIGESVHDDLYDKKVDEEAEAKMLEKYKQERLEEMFPDEVDTPRDVAARIRFQKYRGLKSFRTSPWDPKENLPQDYARIFQFQNFTNTRKSIFKEVEEKEVEGAEVGWYVTLHVSEVPVSVVECFRQGTPLIAFSLLPHEQKMSVLNMVVRRDPGNTEPVKAKEELIFHCGFRRFRASPLFSQHTAADKHKLQRFLTADMALVATVYAPITFPPASVLLFKQKSNGMHSLIATGHLMSVDPDRMVIKRVVLSGHPFKIFTKMAVVRYMFFNREDVLWFKPVELRTKWGRRGHIKEPLGTHGHMKCSFDGKLKSQDTVLMNLYKRVFPKWTYDPYVPEPVPWLKSEISSTVPQGGME
[1]
  Difference (log2), PP1 vs untreated: 0.01439 log2
[2]
  Difference (log2), untreated vs GFP: 1.267 log2

B2: EEF1A1P5;EEF1A1 (protein, UniProt P68104 2-462, looked up)
Elongation factor 1-alpha 1: GKEKTHINIVVIGHVDSGKSTTTGHLIYKCGGIDKRTIEKFEKEAAEMGKGSFKYAWVLDKLKAERERGITIDISLWKFETSKYYVTIIDAPGHRDFIKNMITGTSQADCAVLIVAAGVGEFEAGISKNGQTREHALLAYTLGVKQLIVGVNKMDSTEPPYSQKRYEEIVKEVSTYIKKIGYNPDTVAFVPISGWNGDNMLEPSANMPWFKGWKVTRKDGNASGTTLLEALDCILPPTRPTDKPLRLPLQDVYKIGGIGTVPVGRVETGVLKPGMVVTFAPVNVTTEVKSVEMHHEALSEALPGDNVGFNVKNVSVKDVRRGNVAGDSKNDPPMEAAGFTAQVIILNHPGQISAGYAPVLDCHTAHIACKFAELKEKIDRRSGKKLEDGPKFLKSGDAAIVDMVPGKPMCVESFSDYPPLGRFAVRDMRQTVAVGVIKAVDKKAAGAGKVTKSAQKAQKAK
[1]
  Difference (log2), PP1 vs untreated: 0.02225 log2
[2]
  Difference (log2), untreated vs GFP: -0.241 log2

B3: SLC3A2 (protein, UniProt P08195 1-630, looked up)
Amino acid transporter heavy …: MELQPPEASIAVVSIPRQLPGSHSEAGVQGLSAGDDSELGSHCVAQTGLELLASGDPLPSASQNAEMIETGSDCVTQAGLQLLASSDPPALASKNAEVTGTMSQDTEVDMKEVELNELEPEKQPMNAASGAAMSLAGAEKNGLVKIKVAEDEAEAAAAAKFTGLSKEELLKVAGSPGWVRTRWALLLLFWLGWLGMLAGAVVIIVRAPRCRELPAQKWWHTGALYRIGDLQAFQGHGAGNLAGLKGRLDYLSSLKVKGLVLGPIHKNQKDDVAQTDLLQIDPNFGSKEDFDSLLQSAKKKSIRVILDLTPNYRGENSWFSTQVDTVATKVKDALEFWLQAGVDGFQVRDIENLKDASSFLAEWQNITKGFSEDRLLIAGTNSSDLQQILSLLESNKDLLLTSSYLSDSGSTGEHTKSLVTQYLNATGNRWCSWSLSQARLLTSFLPAQLLRLYQLMLFTLPGTPVFSYGDEIGLDAAALPGQPMEAPVMLWDESSFPDIPGAVSANMTVKGQSEDPGSLLSLFRRLSDQRSKERSLLHGDFHAFSAGPGLFSYIRHWDQNERFLVVLNFGDVGLSAGLQASDLPASASLPAKADLLLSTQPGREEGSPLELERLKLEPHEGLLLRFPYAA
[1]
  Difference (log2), PP1 vs untreated: 0.07419 log2
[2]
  Difference (log2), untreated vs GFP: 0.2155 log2

B4: LYPD3 (protein, UniProt O95274 31-326, looked up)
Ly6/PLAUR domain-containing …: LECYSCVQKADDGCSPNKMKTVKCAPGVDVCTEAVGAVETIHGQFSLAVRGCGSGLPGKNDRGLDLHGLLAFIQLQQCAQDRCNAKLNLTSRALDPAGNESAYPPNGVECYSCVGLSREACQGTSPPVVSCYNASDHVYKGCFDGNVTLTAANVTVSLPVRGCVQDEFCTRDGVTGPGFTLSGSCCQGSRCNSDLRNKTYFSPRIPPLVRLPPPEPTTVASTTSVTTSTSAPVRPTSTTKPMPAPTSQTPRQGVEHEASRDEEPRLTGGAAGHQDRSNSGQYPAKGGPQQPHNKGC
[1]
  Difference (log2), PP1 vs untreated: 0.03143 log2
[2]
  Difference (log2), untreated vs GFP: -0.7562 log2

B5: SOAT1 (protein, UniProt P35610 1-550, looked up)
Sterol O-acyltransferase 1: MVGEEKMSLRNRLSKSRENPEEDEDQRNPAKESLETPSNGRIDIKQLIAKKIKLTAEAEELKPFFMKEVGSHFDDFVTNLIEKSASLDNGGCALTTFSVLEGEKNNHRAKDLRAPPEQGKIFIARRSLLDELLEVDHIRTIYHMFIALLILFILSTLVVDYIDEGRLVLEFSLLSYAFGKFPTVVWTWWIMFLSTFSVPYFLFQHWATGYSKSSHPLIRSLFHGFLFMIFQIGVLGFGPTYVVLAYTLPPASRFIIIFEQIRFVMKAHSFVRENVPRVLNSAKEKSSTVPIPTVNQYLYFLFAPTLIYRDSYPRNPTVRWGYVAMKFAQVFGCFFYVYYIFERLCAPLFRNIKQEPFSARVLVLCVFNSILPGVLILFLTFFAFLHCWLNAFAEMLRFGDRMFYKDWWNSTSYSNYYRTWNVVVHDWLYYYAYKDFLWFFSKRFKSAAMLAVFAVSAVVHEYALAVCLSFFYPVLFVLFMFFGMAFNFIVNDSRKKPIWNVLMWTSLFLGNGVLLCFYSQEWYARQHCPLKNPTFLDYVRPRSWTCRYVF
[1]
  Difference (log2), PP1 vs untreated: 0.06363 log2
[2]
  Difference (log2), untreated vs GFP: 0.443 log2

B6: PHF6 (protein, UniProt Q8IWS0 2-365, looked up)
PHD finger protein 6: SSSVEQKKGPTRQRKCGFCKSNRDKECGQLLISENQKVAAHHKCMLFSSALVSSHSDNESLGGFSIEDVQKEIKRGTKLMCSLCHCPGATIGCDVKTCHRTYHYHCALHDKAQIREKPSQGIYMVYCRKHKKTAHNSEADLEESFNEHELEPSSPKSKKKSRKGRPRKTNFKGLSEDTRSTSSHGTDEMESSSYRDRSPHRSSPSDTRPKCGFCHVGEEENEARGKLHIFNAKKAAAHYKCMLFSSGTVQLTTTSRAEFGDFDIKTVLQEIKRGKRMKCTLCSQPGATIGCEIKACVKTYHYHCGVQDKAKYIENMSRGIYKLYCKNHSGNDERDEEDEERESKSRGKVEIDQQQLTQQQLNGN
[1]
  Difference (log2), PP1 vs untreated: 0.0136 log2
[2]
  Difference (log2), untreated vs GFP: 0.8956 log2

B7: NAP1L1 (protein, UniProt P55209 2-388, looked up)
Nucleosome assembly protein …: ADIDNKEQSELDQDLDDVEEVEEEETGEETKLKARQLTVQMMQNPQILAALQERLDGLVETPTGYIESLPRVVKRRVNALKNLQVKCAQIEAKFYEEVHDLERKYAVLYQPLFDKRFEIINAIYEPTEEECEWKPDEEDEISEELKEKAKIEDEKKDEEKEDPKGIPEFWLTVFKNVDLLSDMVQEHDEPILKHLKDIKVKFSDAGQPMSFVLEFHFEPNEYFTNEVLTKTYRMRSEPDDSDPFSFDGPEIMGCTGCQIDWKKGKNVTLKTIKKKQKHKGRGTVRTVTKTVSNDSFFNFFAPPEVPESGDLDDDAEAILAADFEIGHFLRERIIPRSVLYFTGEAIEDDDDDYDEEGEEADEEGEEEGDEENDPDYDPKKDQNPAEC
[1]; [3]
  Difference (log2), PP1 vs untreated: 1.883
[2]; [3]
  Difference (log2), untreated vs GFP: -0.3295

B8: HDLBP (protein, UniProt Q00341 2-1268, looked up)
Vigilin: SSVAVLTQESFAEHRSGLVPQQIKVATLNSEEESDPPTYKDAFPPLPEKAACLESAQEPAGAWGNKIRPIKASVITQVFHVPLEERKYKDMNQFGEGEQAKICLEIMQRTGAHLELSLAKDQGLSIMVSGKLDAVMKARKDIVARLQTQASATVAIPKEHHRFVIGKNGEKLQDLELKTATKIQIPRPDDPSNQIKITGTKEGIEKARHEVLLISAEQDKRAVERLEVEKAFHPFIAGPYNRLVGEIMQETGTRINIPPPSVNRTEIVFTGEKEQLAQAVARIKKIYEEKKKKTTTIAVEVKKSQHKYVIGPKGNSLQEILERTGVSVEIPPSDSISETVILRGEPEKLGQALTEVYAKANSFTVSSVAAPSWLHRFIIGKKGQNLAKITQQMPKVHIEFTEGEDKITLEGPTEDVNVAQEQIEGMVKDLINRMDYVEINIDHKFHRHLIGKSGANINRIKDQYKVSVRIPPDSEKSNLIRIEGDPQGVQQAKRELLELASRMENERTKDLIIEQRFHRTIIGQKGERIREIRDKFPEVIINFPDPAQKSDIVQLRGPKNEVEKCTKYMQKMVADLVENSYSISVPIFKQFHKNIIGKGGANIKKIREESNTKIDLPAENSNSETIIITGKRANCEAARSRILSIQKDLANIAEVEVSIPAKLHNSLIGTKGRLIRSIMEECGGVHIHFPVEGSGSDTVVIRGPSSDVEKAKKQLLHLAEEKQTKSFTVDIRAKPEYHKFLIGKGGGKIRKVRDSTGARVIFPAAEDKDQDLITIIGKEDAVREAQKELEALIQNLDNVVEDSMLVDPKHHRHFVIRRGQVLREIAEEYGGVMVSFPRSGTQSDKVTLKGAKDCVEAAKKRIQEIIEDLEAQVTLECAIPQKFHRSVMGPKGSRIQQITRDFSVQIKFPDREENAVHSTEPVVQENGDEAGEGREAKDCDPGSPRRCDIIIISGRKEKCEAAKEALEALVPVTIEVEVPFDLHRYVIGQKGSGIRKMMDEFEVNIHVPAPELQSDIIAITGLAANLDRAKAGLLERVKELQAEQEDRALRSFKLSVTVDPKYHPKIIGRKGAVITQIRLEHDVNIQFPDKDDGNQPQDQITITGYEKNTEAARDAILRIVGELEQMVSEDVPLDHRVHARIIGARGKAIRKIMDEFKVDIRFPQSGAPDPNCVTVTGLPENVEEAIDHILNLEEEYLADVVDSEALQVYMKPPAHEEAKAPSRGFVVRDAPWTASSSEKAPDMSSSEEFPSFGAQVAPKTLPWGPKR
[1]
  Difference (log2), PP1 vs untreated: 0.06756 log2
[2]
  Difference (log2), untreated vs GFP: 0.159 log2

B9: DDX17 (protein, UniProt Q92841 1-729, looked up)
Probable ATP-dependent RNA …: MPTGFVAPILCVLLPSPTREAATVASATGDSASERESAAPAAAPTAEAPPPSVVTRPEPQALPSPAIRAPLPDLYPFGTMRGGGFGDRDRDRDRGGFGARGGGGLPPKKFGNPGERLRKKKWDLSELPKFEKNFYVEHPEVARLTPYEVDELRRKKEITVRGGDVCPKPVFAFHHANFPQYVMDVLMDQHFTEPTPIQCQGFPLALSGRDMVGIAQTGSGKTLAYLLPAIVHINHQPYLERGDGPICLVLAPTRELAQQVQQVADDYGKCSRLKSTCIYGGAPKGPQIRDLERGVEICIATPGRLIDFLESGKTNLRRCTYLVLDEADRMLDMGFEPQIRKIVDQIRPDRQTLMWSATWPKEVRQLAEDFLRDYTQINVGNLELSANHNILQIVDVCMESEKDHKLIQLMEEIMAEKENKTIIFVETKRRCDDLTRRMRRDGWPAMCIHGDKSQPERDWVLNEFRSGKAPILIATDVASRGLDVEDVKFVINYDYPNSSEDYVHRIGRTARSTNKGTAYTFFTPGNLKQARELIKVLEEANQAINPKLMQLVDHRGGGGGGGGRSRYRTTSSANNPNLMYQDECDRRLRGVKDGGRRDSASYRDRSETDRAGYANGSGYGSPNSAFGAQAGQYTYGQGTYGAAAYGTSSYTAQEYGAGTYGASSTTSTGRSSQSSSQQFSGIGRSGQQPQPLMSQQFAQPPGATNMIGYMGQTAYQYPPPPPPPPPSRK
[1]
  Difference (log2), PP1 vs untreated: 0.07996 log2
[2]
  Difference (log2), untreated vs GFP: 0.6933 log2
